This assay has as its target nesprin-2G SR11-13 (spectrin repeats 11-13 of human nesprin-2) (human). The assay can be described thus: co-sedimentation.

This is an account of results in publication doi:10.1101/2025.06.13.659598.

Sequence of FHOD1 wild-type, full length (Q9Y613 whole entry): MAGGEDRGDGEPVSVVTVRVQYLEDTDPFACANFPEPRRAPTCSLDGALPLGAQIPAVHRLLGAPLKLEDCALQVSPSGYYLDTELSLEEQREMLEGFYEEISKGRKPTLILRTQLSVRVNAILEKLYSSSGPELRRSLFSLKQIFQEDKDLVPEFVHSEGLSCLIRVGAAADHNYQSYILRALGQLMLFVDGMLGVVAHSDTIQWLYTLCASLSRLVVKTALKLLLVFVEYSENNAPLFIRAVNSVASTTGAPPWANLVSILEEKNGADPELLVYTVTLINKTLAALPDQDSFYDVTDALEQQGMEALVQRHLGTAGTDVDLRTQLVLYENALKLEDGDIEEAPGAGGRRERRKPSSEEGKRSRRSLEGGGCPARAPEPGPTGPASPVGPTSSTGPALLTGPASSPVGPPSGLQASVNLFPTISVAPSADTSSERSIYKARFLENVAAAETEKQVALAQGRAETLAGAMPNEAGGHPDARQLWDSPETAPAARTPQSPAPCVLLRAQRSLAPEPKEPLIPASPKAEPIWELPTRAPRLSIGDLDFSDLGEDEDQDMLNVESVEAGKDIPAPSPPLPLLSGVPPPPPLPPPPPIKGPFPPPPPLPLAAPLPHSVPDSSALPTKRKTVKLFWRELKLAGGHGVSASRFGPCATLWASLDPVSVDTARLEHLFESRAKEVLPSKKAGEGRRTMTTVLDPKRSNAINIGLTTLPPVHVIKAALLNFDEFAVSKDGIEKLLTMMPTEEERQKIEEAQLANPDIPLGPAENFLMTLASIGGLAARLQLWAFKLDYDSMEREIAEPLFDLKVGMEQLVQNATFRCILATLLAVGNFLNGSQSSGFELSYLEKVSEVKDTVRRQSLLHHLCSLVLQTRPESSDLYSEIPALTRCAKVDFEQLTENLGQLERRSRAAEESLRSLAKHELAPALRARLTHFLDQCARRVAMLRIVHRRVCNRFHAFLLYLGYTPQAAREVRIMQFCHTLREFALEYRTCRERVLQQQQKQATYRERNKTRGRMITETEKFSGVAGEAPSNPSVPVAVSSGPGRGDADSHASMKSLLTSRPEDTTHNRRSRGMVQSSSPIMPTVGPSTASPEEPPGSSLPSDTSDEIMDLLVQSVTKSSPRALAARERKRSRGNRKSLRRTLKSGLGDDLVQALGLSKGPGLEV

A word on the stoichiometry N: it is a count of units in the complex or per binding partner. As for “FHOD1 wild-type, full length (from UniProt Q9Y613 1-1164) (natural protein)”, the stoichiometry N (scale: FHOD1 WT per SR11-13) stood at 1.18.

Substance “FHOD3 wild-type (from UniProt Q2V2M9 1-1422) (natural protein)” returned a stoichiometry N (scale: FHOD3 WT per SR11-13) of 1.3.
